According to PMC7755911 (Scientific Reports, 2020):

Legend:
Conditions in all cases: both partners purified
[1] = target: SARS-CoV-2 Receptor Binding Domain (RBD) (SARS-CoV-2, UniProt P0DTC2); test: SPR
[2] = target: T1, Horse radish peroxidase conjugated RBD (GenScript SARS-CoV-2 Neutralization Antibody Detection Kit) (SARS-CoV-2, UniProt P0DTC2); test: ELISA
T1 construct: source: bought: GenScript (kit L00847)

[3] = target: SARS-CoV-2 RBD (cross-reactivity experiments) (SARS-CoV-2, UniProt P0DTC2); test: ELISA
[4] = target: Biotinylated SARS-CoV-2 S protein RBD with a C-terminal AviTag (SARS-CoV-2, canonical (Wuhan-Hu-1) …, UniProt P0DTC2, biotinylated); test: BLI

B1: NIH-CoVnb-112 (VHH)
VHH: DVQLQESGGGLVQPGGSLRLSCAASGLTLDYYAIGWFRQAPGKEREGVSCISSSDGSTYYADSVKGRFTTSRDNAKNTVYLQMNSLKPEDTAVYYCAAVPSTYYSGTYYYTCHPGGMDYWGKGTQVTVSS
notes: also called lead nanobody candidate; anti-SARS-CoV-2 RBD nanobody; source: E. coli BL21 (DE3), periplasm by osmotic shock, purified (HisTrap, Superdex 75)
Kd [1]: 2.1 nM | binding result [2]: binds | binding result [3]: binds

B2: VHH72 (VHH)
VHH: QVQLQESGGGLVQAGGSLRLSCAASGRTFSEYAMGWFRQAPGKEREFVATISWSGGSTYYTDSVKGRFTISRDNAKNTVYLQMNSLKPDDTAVYYCAAAGLGTVVSEWDYDYDYWGQGTQVTVSS
binding result [4]: binds
